Test results reported in patent publication US20060051344A1.

What was measured:
[1] = molecular target: these two hybridoma culture supernatants; assay: competitive EIA against biotinylated goby urotensin II
[2] = molecular target: monoclonal antibody AUII103-5-41a; assay: competitive EIA; ratio of the antigen levels giving (B/B0)=0.5 (0.68 nM / 17.4 nM)
[3] = molecular target: monoclonal antibody AUII5-6-10a; assay: competitive EIA: unlabelled peptide displaces biotinylated goby urotensin II from captured antibody
[4] = molecular target: monoclonal antibody AUII103-5-41a; assay: as above

Row | Binder | IC50 [1] [nM] | human urotensin II level at (B/B0)=0.9 [1] [nM] | ratio of reactivity with human urotensin II to reactivity with porcine urotensin II-1 [2] [time] | IC50 [3] [nM] | IC50 [4] [nM]
1 | ETPDCFWKYCV [human urotensin II] | 0.5 to 2 | 0.2 | 0.04 | 1.2 | 0.68
2 | GPTSECFWKYCV [porcine urotensin II-1] |  |  |  |  | 17.4
